Data: patent US20160272691A1, “COMPOSITIONS AND METHODS FOR TREATING CONDITIONS ASSOCIATED WITH y-HERPESVIRUSES” (NDSU RESEARCH FOUNDATION, priority 2013, published 2016)

What was measured:
[1] = biological target: Bcl-XL expressed in MCF7 cells (UniProt Q07817); assay: cell-based or functional assay
[2] = biological target: T1, M11 expressed in MCF7 cells (murine γHV68) (UniProt P89884); assay: cell-based or functional assay
T1 sequence: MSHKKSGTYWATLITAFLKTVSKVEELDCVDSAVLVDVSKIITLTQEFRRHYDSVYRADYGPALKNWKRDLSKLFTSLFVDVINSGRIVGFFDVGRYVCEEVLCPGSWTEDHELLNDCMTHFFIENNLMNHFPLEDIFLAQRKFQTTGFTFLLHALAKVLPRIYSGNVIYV

Sequence of Bcl-XL expressed in MCF7 cells (Q07817 whole entry): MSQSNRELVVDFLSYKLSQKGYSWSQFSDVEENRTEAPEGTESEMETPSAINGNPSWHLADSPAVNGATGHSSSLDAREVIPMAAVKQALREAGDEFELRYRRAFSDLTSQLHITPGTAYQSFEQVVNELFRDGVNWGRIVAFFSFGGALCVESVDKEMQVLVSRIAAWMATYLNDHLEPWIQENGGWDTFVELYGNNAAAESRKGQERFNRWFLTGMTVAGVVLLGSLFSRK

| Substance | Bcl-XL-mediated down-regulation of autophagy (GFP-LC3 puncta per cell, MCF7) [1] | M11-mediated down-regulation of autophagy (GFP-LC3 puncta per cell, MCF7) [2] |
| --- | --- | --- |
| Beclin 1 G120E+D121A double mutant, expressed in MCF7 cells (from UniProt Q14457 1-450) | 0.00079 p (t-test) | 0.228 p (t-test) |
| Beclin 1 G120E mutant, expressed in MCF7 cells (from UniProt Q14457 1-450) | 0.0119 p (t-test) | 0.0313 p (t-test) |
| Beclin 1 K117A mutant, expressed in MCF7 cells (from UniProt Q14457 1-450) | 0.504 p (t-test) | 0.157 p (t-test) |
| Beclin 1 F123A mutant, expressed in MCF7 cells (from UniProt Q14457 1-450) | 0.00246 p (t-test) | 0.0107 p (t-test) |
| Beclin 1 L112A mutant, expressed in MCF7 cells (from UniProt Q14457 1-450) | 0.0621 p (t-test) | 0.00065 p (t-test) |
| Beclin 1 L116A mutant, expressed in MCF7 cells (from UniProt Q14457 1-450) | 0.00212 p (t-test) | 0.00432 p (t-test) |
